# Assay results as given in the RNAGym collection of RNA variant scans (doi:10.1073/pnas.2313332121).
# Variants at the floor of the assay were thinned out.
# B1: TPR 5TU (parent)
# chain: GGAUCUUCUCGAUCUAACAAAAAAGACAAAUCUGCCACAAAGCUUGAGAGCAUCUUCGGAUGCAGAGGCGGCAGCCUUCGGUGGCGCGAUAGCGCCAACGUUCUCAACUAUGACACGCAAAACGCGUGCUCCGUUGAAUGGAGUUUAUCAUG
# Variants of: B1
# Experiment: polymerase ribozyme fitness, log enrichment relative to wild type (log ratio); higher = more active; in vitro selection for triplet polymerase activity
# How it was run: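 Both subunits of a heterodimeric triplet polymerase ribozyme were given their own mutant library, built by PCR and transcribed. Each library was annealed with a biotinylated primer, the partner subunit and triplets, incubated frozen at −7 °C, and its extended constructs gel-excised, captured on streptavidin beads and amplified by RT-PCR, all in one round done in triplicate. Fitness is the logarithm of genotype enrichment relative to wild-type enrichment, with replicates averaged by inverse-variance weighting. That logarithm is base 2, and Illumina-sequenced genotypes needed ≥10 input reads and ≥1 read per output.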
row,Variant,polymerase ribozyme fitness (log ratio)
1,A17C G83C,-0.317
2,A16C C85A,-2.36
3,A16G C57A C85G A121U,-2.53
4,A17G A21U A49C G59C G74U C85G,≤ -4.2
5,A17G C57U G94C U139C U144A,≤ -4.2
6,A16U G83U C85U C103G U135G,≤ -4.2
7,A16U A73G A107G A119G,≤ -4.2
8,A16U C96A,-2.78
9,A16G C54A C116A G133C,-2.21
10,A17U A41C G83C A97U U127A A138U A150C,≤ -4.2
11,A16C A30U G68C C79G,≤ -4.2
12,U15G G83U,-0.494
13,A16G A52C C87A U102A C118G C132U,≤ -4.2
14,A16C A22G U53A G92U,-2.34
15,A17C U31G G48A U53A G80C C85U G133U G140U A142U G152U,≤ -4.2
16,A17U A37C U61A C93A C99A C125A U144A,≤ -4.2
17,A16G A49G A73C A91G U144C,≤ -4.2
18,A17C C85G C149G,≤ -4.2
19,A17C A22C A73C A91C C95G U101A G143A,≤ -4.2
20,A17U C35U A40U G92U,-2.32
21,A16G C38A A147C,-2.97
22,A16G A26U G65U C103G A107G C114G,≤ -4.2
23,A16U C36A G92U A150U,≤ -4.2
24,A17G A41G C54U,0.908

row,Variant,polymerase ribozyme fitness (log ratio)
1,A17U C54U,-0.241
2,A16G A73G,-0.494
3,A16U G92U C99G,-3.45
4,A16C A20U A40U C54U G58U A60C,-4.15
5,A17G C87U,-0.0232
6,A17U G62U G84U,-2.48
7,U15G C54G G81A C95U,-2.2
8,A16U U56A A60U G141U,-2.12
9,A16U C32G A66U C72U C85G,≤ -4.2
10,A17U U77G C87G G92C A119C,≤ -4.2
11,A17C U33C G42U U44A U56G,≤ -4.2
12,A17U U61G C76G,≤ -4.2
13,U15G G70A C87U U90C C93U,≤ -4.2
14,A16C A120C G140A,-3.75
15,A16G A91G C118U A150U,-3.08
16,A17G A39U C54G A64C A89C U90G A122U U139C U144A,≤ -4.2
17,A16C A22U A97U C114A U135G,≤ -4.2
18,A17U A28C U31A,-3.71
19,A16C C32A A49U U102G C129G,≤ -4.2
20,A17U U90A U102A U127A A137G A138C U151A,≤ -4.2
21,A16C A24U G58A G92U,-2.2
22,A16U U31C C35U A37C C76G C105G G117A,≤ -4.2
23,A16U U55A,-2.64
24,C18A A20G A24C C27G U82C G126U,≤ -4.2

row,Variant,polymerase ribozyme fitness (log ratio)
1,A17C A30U A60C G62A A66G G84A C118A,≤ -4.2
2,A16C C38A C76U,-2.07
3,A16G U53A U56G A89C C96U U111C,≤ -4.2
4,A16G G58A C129G,-4.19
5,A16G G92U C93U C118U,-2.94
6,A16U A39U A49U G50C G84U A119G A121G G140U,≤ -4.2
7,A16C A21C G50A C85U C125G,-2.99
8,U15G U139A,≤ -4.2
9,A17G A40G G50C C85A,≤ -4.2
10,A16G C85G,-2.6
11,A16G C85U,-0.908
12,A16C C43A A52C G70A C131U,≤ -4.2
13,A17G A21U A49C G59C G74U C85G C116U U134A,≤ -4.2
14,U15G G25C A41C U55G C96A U139C G152U,≤ -4.2
15,A16G A47G G50C G59A G83U C114A,≤ -4.2
16,A16U C18G G94A,-2.97
17,A16U C93G C105G,≤ -4.2
18,A16C G48A C51U C96G,-3.07
19,A16C C93A,-3.94
20,A17C C85A C99A,-2.66
21,A17U U44A U55G G136A,≤ -4.2
22,A17G C27A A29U U55A A64G C79A C93U A98G G100U G136A,≤ -4.2
23,A16C C108U A147U,-3.42
24,A17U A21G A40G U55A A60G C95A U146C,-2.4

row,Variant,polymerase ribozyme fitness (log ratio)
1,A16G G46U G84A C105U G133C A138G A142G,≤ -4.2
2,A16G U31G G46A U55A C95G,≤ -4.2
3,C18A A20U A24G A26G A29U C57A U77A G88C,≤ -4.2
4,A17G A41U C54U A73G,-1.46
5,A16U G42A G59A G71A A89G,≤ -4.2
6,A16C G92U C105U A107U A110C A138C,≤ -4.2
7,A16G A40U G59C U104A,-1.85
8,A16G A37C U55G U56A G59A G83A C87U,-3.9
9,A16G C95U C96A G100U U101A C108A U139C U144A,≤ -4.2
10,A16U C18G A21U A98G C105U,≤ -4.2
11,A17G A39G C79G A89U C96G,-4.19
12,A17G A19C U55G C87U C93U C108U G141U,≤ -4.2
13,A16G G48U U109G,-3.48
14,A17U A37C G46A C85G C114U,≤ -4.2
15,A16U C76G G80C,≤ -4.2
16,A17C G50U C54U C96G,-1.28
17,A16C C38A,-1.34
18,A17G C85U,-1.27
19,A17C U53G G62U G117U,-2.27
20,A16U C57A G58U C75G C87A C99U A142C U144C,≤ -4.2
21,A17G C27G C43U C87G A89C U109A A147U,≤ -4.2
22,A16U A24C C27U C85U G126U,≤ -4.2
23,A16U A47C G59A C87G U90A U101A A113G,≤ -4.2
24,A16G A30U G81C C95U A110G,≤ -4.2

row,Variant,polymerase ribozyme fitness (log ratio)
1,A17C C85G G94A C123A G124U,-1.12
2,A16U G84U C129A,≤ -4.2
3,A16U C51U G86U U104A C108A G124U,≤ -4.2
4,A16G A21C G80A C103A U104G,≤ -4.2
5,A16C A121G,-1.15
6,A16U A26C A29U G68C G83A,≤ -4.2
7,A16U C18A A22U G48U U56G A66G G84U U144A,≤ -4.2
8,A17U U127A,-3.29
9,A17G A20U G84A A97U A115C,-3.45
10,A17U C76A G83A C87G G124A A150C,≤ -4.2
11,A17U G59A C87U C93A G143U U146G,≤ -4.2
12,A16U A20C C27U A37U G59C A64C C85U A113G A120U C132U,≤ -4.2
13,A16G A39G G68A C95A C103G C108U U111G A115G C123U,≤ -4.2
14,A17U C76A A122G,-0.419
15,A16C G58U U101G C105A U144G,≤ -4.2
16,A16G A24U A73U,-2.25
17,A17U U44G U56G G128U,≤ -4.2
18,A17U A20G A40C G126U,-0.583
19,A16C A19C G84C C96U G126C,-3.42
20,A17C C93G,-3.8
21,A17C G86U,-0.8
22,A16U A30U C87A,≤ -4.2
23,A17U G94C,-1.63
24,A17G U33G G50U A52U G86C C105U A106C C125A,≤ -4.2

row,Variant,polymerase ribozyme fitness (log ratio)
1,A16G A89U A115G A119G U134G U144A,≤ -4.2
2,A16C A21C A49C C54U C96U,-4.18
3,A16U A19U G80A U144G,-2.53
4,A17G C69A U82G G86C G117U G140C U145A,≤ -4.2
5,A17U C32U A52C G84C U90C U109G,≤ -4.2
6,A17C U31G C76A C95G,≤ -4.2
7,A16C G58C G83U A119C,-1.98
8,A16U G25U C27U A28U C43U G94C C99G C125A U148C U151G,≤ -4.2
9,U15G C85A,-1.35
10,A17U C108U,-3.48
11,U15G G48A C116U G152A,-2.5
12,A16G U33G C93A C95A C103U A121G,≤ -4.2
13,A16G A17U A26U A41U C96A U102A G143C,≤ -4.2
14,A16U C93U A106C,-3.19
15,A16U A37C C63U C95U C123A G141U,-4.01
16,A17U C69G G80C A107U C131U U145G,≤ -4.2
17,U15G C85A C123U,-0.906
18,A16U G84U,-3.5
19,A16U A22U A52C C87A A107C C125A U134C,≤ -4.2
20,A17G A22G A24U G46A A47C C123A C129A,≤ -4.2
21,A16C C32A A41U A60G G74U C93G A147U,≤ -4.2
22,A17G C35U C85G A98C A121U C123A,-1.35
23,A16C A47C U55A,-2.23
24,A16C G86C,-3.43

row,Variant,polymerase ribozyme fitness (log ratio)
1,A16U A52C,-2.96
2,A16C A37C A39C C85U,≤ -4.2
3,A16U A22U A23G A60U C95U C108U A119G C123U,≤ -4.2
4,A17U G86A,-0.694
5,C18A A20C U53C G59U C93G U148C,-4.14
6,U15G C72U C79A C93U G94U C96A G140A,≤ -4.2
7,A16U A28C U55A C69A G71A G88C U102G C123U U130G,≤ -4.2
8,A16C C75A C76A C125G,≤ -4.2
9,A17U A28U G83U C96A C99U C132G,≤ -4.2
10,A17G G86A C93U A97U,0.0217
11,A16C G50A A64G C75A G83C C131A,≤ -4.2
12,A17G A39G C57A C96A,-2
13,A17G C36U,-3.9
14,A17U U55A G59C G94U C132G,≤ -4.2
15,A17U G34U C43U C63A C87A A106C C108A,≤ -4.2
16,A16G C108U G126A,≤ -4.2
17,A17U A98U,-1.12
18,A17U C69U U77C C87U,≤ -4.2
19,A17U U90G C103A,≤ -4.2
20,A16U C51A G74U C87A A107U,≤ -4.2
21,A16C A60U A66C C76U U78C C93A,≤ -4.2
22,A16U C38G U61A C75G G80A G100A G136U,≤ -4.2
23,A16U C85U,-2.1
